Assay results as given in patent publication US20190201491A1 (ELANCO US, published 2019).

Target: beta Klotho and FGFR1c (Fibroblast Growth Factor Receptor isoform 1c) expressed on the cell surface of a …
Assay: cell-based or functional assay

EC50 (ng/mL), STEADY-GLO Elk1 luciferase reporter assay: 38 ng/mL
Fold loss potency relative to WT bFGF21, Elk1 luciferase reporter assay: 1 fold
B1: wild-type (WT) bFGF-21 (ligand)
chain: HPIPDSSPLLQFGGQVRQRYLYTDDAQETEAHLEIRADGTVVGAARQSPESLLELKALKPGVIQILGVKTSRFLCQGPDGKLYGSLHFDPKACSFRELLLEDGYNVYQSETLGLPLRLPPQRSSNRDPAPRGPARFLPLPGLPAAPPDPPGILAPEPPDVGSSDPLSMVGPSYGRSPSYTS
